Experimental data reported in patent publication US20080219962.

Smurf1 (Smad ubiquitin regulatory factor 1), sequence (Q9HCE7 whole entry): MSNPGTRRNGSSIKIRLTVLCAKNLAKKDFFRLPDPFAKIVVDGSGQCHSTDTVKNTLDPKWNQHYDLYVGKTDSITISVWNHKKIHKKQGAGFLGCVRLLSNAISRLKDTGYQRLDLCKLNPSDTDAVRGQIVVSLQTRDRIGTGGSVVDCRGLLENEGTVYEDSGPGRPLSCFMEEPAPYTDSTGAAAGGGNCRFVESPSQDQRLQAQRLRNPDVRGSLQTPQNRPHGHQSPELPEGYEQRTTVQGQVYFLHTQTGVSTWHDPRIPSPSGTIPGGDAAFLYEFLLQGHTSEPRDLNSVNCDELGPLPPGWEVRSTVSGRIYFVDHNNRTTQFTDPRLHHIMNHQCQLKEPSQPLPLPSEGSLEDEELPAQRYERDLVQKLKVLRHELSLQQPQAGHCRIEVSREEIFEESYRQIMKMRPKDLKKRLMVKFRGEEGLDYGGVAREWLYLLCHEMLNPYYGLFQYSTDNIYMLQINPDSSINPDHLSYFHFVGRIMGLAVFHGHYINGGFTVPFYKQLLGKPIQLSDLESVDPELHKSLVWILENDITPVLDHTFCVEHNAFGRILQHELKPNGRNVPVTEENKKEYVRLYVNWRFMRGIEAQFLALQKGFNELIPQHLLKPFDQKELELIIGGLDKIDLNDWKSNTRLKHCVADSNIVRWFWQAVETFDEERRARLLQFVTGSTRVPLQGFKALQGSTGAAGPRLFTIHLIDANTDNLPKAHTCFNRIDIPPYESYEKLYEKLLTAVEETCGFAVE
myc-labeled Runx2, sequence (chain, as listed by the source): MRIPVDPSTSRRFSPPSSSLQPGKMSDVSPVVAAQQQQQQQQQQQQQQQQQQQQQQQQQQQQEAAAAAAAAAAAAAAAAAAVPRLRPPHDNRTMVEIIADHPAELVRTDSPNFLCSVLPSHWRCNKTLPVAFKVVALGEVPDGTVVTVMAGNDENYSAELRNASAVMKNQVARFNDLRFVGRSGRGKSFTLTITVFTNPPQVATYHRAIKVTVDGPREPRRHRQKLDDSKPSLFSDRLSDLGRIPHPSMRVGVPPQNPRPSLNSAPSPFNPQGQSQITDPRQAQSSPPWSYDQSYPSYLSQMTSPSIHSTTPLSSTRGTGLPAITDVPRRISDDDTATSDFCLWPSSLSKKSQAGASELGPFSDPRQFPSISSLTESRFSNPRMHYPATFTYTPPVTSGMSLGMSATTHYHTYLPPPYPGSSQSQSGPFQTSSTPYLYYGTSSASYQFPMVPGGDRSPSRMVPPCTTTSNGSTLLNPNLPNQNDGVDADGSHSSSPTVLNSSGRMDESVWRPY
Runx2-del-415-418, sequence (chain, as listed by the source): as above
myc-labeled HDAC5, sequence (Q9UQL6 whole entry): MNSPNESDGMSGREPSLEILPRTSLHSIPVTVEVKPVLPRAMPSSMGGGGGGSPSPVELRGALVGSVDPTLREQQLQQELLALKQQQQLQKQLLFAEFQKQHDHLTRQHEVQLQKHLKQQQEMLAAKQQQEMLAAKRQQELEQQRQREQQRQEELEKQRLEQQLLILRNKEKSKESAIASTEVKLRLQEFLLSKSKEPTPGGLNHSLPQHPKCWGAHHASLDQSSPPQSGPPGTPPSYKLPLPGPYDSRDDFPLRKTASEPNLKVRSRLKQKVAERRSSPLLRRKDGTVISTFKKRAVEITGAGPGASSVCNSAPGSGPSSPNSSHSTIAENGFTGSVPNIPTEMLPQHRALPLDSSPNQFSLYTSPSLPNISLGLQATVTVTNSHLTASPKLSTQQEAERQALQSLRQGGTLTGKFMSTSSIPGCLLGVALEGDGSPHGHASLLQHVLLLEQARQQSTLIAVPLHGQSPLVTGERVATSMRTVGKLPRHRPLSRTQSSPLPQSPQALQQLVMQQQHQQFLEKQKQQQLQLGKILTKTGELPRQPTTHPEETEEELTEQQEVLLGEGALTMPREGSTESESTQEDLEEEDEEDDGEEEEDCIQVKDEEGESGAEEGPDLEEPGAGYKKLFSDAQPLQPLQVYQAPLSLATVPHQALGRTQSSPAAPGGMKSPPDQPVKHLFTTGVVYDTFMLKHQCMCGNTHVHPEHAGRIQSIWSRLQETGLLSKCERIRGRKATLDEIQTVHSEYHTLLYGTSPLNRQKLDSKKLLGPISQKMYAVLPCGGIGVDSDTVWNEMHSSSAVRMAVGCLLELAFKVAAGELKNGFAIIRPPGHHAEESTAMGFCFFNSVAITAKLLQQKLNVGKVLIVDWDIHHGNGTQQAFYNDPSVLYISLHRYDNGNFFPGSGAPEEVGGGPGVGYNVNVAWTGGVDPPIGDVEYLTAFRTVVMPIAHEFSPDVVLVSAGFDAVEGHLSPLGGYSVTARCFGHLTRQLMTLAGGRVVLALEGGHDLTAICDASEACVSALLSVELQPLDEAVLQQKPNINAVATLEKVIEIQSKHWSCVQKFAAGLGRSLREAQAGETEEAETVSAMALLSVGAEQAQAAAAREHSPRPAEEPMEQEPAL
myc-labeled HDAC4, sequence (P56524 whole entry): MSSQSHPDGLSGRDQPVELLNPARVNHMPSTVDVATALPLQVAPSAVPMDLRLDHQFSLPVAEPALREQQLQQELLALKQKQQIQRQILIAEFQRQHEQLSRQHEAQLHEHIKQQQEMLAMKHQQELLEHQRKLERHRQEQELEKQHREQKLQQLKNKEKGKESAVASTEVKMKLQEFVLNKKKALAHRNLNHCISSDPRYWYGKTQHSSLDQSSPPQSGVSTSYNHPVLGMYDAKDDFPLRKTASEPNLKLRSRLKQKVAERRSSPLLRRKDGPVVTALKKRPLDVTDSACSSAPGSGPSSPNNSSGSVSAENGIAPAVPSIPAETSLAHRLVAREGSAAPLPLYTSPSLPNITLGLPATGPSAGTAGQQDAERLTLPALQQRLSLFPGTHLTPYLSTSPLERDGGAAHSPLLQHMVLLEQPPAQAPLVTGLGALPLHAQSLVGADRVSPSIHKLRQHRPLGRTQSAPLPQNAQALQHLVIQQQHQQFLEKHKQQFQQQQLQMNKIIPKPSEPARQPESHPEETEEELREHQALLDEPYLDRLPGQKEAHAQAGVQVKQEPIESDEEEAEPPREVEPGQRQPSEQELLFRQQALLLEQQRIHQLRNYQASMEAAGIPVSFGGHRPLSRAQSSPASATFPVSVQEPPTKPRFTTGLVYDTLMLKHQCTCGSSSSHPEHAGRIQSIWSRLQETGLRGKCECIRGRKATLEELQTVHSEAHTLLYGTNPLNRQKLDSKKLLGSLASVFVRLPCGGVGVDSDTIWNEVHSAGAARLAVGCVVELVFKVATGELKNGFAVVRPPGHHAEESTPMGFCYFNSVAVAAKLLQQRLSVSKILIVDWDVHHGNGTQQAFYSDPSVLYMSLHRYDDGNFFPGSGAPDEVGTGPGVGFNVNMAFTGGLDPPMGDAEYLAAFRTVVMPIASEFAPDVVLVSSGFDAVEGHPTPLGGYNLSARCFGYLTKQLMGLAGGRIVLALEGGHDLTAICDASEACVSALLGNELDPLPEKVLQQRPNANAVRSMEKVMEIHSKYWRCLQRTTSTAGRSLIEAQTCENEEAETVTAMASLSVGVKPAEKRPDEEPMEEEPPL
Runx2-P415R, sequence (chain, as listed by the source P415R): as the sequence (chain, as listed by the source) above, with P415R counted along it

Substance	Runx2 deacetylation (immunoprecipitation with anti-acetyl-lysine antibody, Western blot with anti-myc antibody) (myc-labeled Runx2)	Smurf1-mediated degradation of Runx2 (Western blot of Runx2 level) (Runx2-P415R)	Smurf1-mediated degradation of Runx2 (Western blot of Runx2 level) (Runx2-del-415-418)
myc-labeled HDAC5	histone deacetylases 4 and 5 deacetylate Runx2	–	–
Smurf1 (Smad ubiquitin regulatory factor 1)	–	Runx2-del-415-418 and Runx2-P415R were very stable, which means they were strongly resistant to Smurf1-mediated degradation	Runx2-del-415-418 and Runx2-P415R were very stable, which means they were strongly resistant to Smurf1-mediated degradation
myc-labeled HDAC4	histone deacetylases 4 and 5 deacetylate Runx2	–	–
